Patent publication US20230265179A1 (TWIST BIOSCIENCE, published 2023)

T1: CD40L over-expressed on Expi293 cells (UniProt P29965 1-261, limits assumed)
T1 construct: whole, on cells; also called cytokine over-expressing Expi293 cells
T1 sequence (looked up): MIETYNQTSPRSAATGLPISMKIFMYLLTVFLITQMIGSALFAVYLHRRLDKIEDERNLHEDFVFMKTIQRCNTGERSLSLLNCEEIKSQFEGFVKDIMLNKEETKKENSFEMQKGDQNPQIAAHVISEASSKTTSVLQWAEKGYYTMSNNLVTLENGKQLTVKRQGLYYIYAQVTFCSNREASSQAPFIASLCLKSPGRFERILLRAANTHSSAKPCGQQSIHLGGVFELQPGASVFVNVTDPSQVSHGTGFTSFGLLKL


Molecular target: T1, CD40L over-expressed on Expi293 cells
Experiment: flow cytometry, 100 nM antibody, CD40L-Expi293 vs parent Expi293 cells;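 further: ratio is the mean fluorescence intensity on CD40L-overexpressing Expi293 cells divided by the mean fluorescence intensity on parental Expi293 cells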
Experimental: All incubations and washes were in buffer containing PBS+1% BSA. MFI Ratio is defined by the mean fluorescence intensity (MFI) of the cytokine over-expressing Expi293 cell over the Expi293 parent cell. […] EC50 was calculated in GraphPad Prism.

Binder | 100 nM FACS (MFI Ratio) [ratio]
CD40L-159 (antibody, V domains shown, IgG2) VH: EVQLLESGGGLVQPGGSLRLSCAASGFDFSDYEMSWVRQAPGKGLEWVSSITSEGGSTYYADSVKGRFTISRNNSKNTLYLQMNSLRAEDTAVYYCAKPDVLFDYWGQGTLVTVSS VL: DIQMTQSPSSLSASVGDRVTITCRASQDISNYLNWYQQKPGKAPKLLIYGKKNRPSGVPSRFSGSGSGTDFTLTISSLQPEDFATYYCQQGYTRTDIDNTFGQGTKVEIK | 0.3
CD40L-165 (antibody, V domains shown, IgG2) VH: EVQLLESGGGLVQPGGSLRLSCAASGFDFSDYEMSWVRQAPGKGLEWVSSITSEGGSTYYADSVKGRFTISRDNSKNTLYLQMNSLRAEDTAVYYCAKPDVLFDYWGQGTLVTVSS VL: DIQMTQSPSSLSASVGDRVTITCRTSQDISNYLNWYQQKPGKAPKLLIYGASTLQSGVPSRFSGSGSGTDFTLTISSLQPEDFATYYCQQSYDNPLTFGQGTKVEIK | 0.5
CD40L-169 (antibody, V domains shown, IgG2) VH: EVQLLESGGGLVQPGGSLRLSCAASGFDFSDYEMSWVRQAPGKGLEWVSSITSEGGSTYYADSVKGRFTISRDNSKNTLYLQMNSLRAEDTAVYYCAKPDVLFDYWGQGTLVTVSS VL: DIQMTQSPSSLSASVGDRVTITCSGDKLGDKYAYWYQQKPGKAPKLLIYFTSTLAAGVPSRFSGSGSGTDFTLTISSLQPEDFATYYCQQSYSSAPTFGQGTKVEIK | 0.4
CD40L-164 (antibody, V domains shown, IgG2) VH: EVQLLESGGGLVQPGGSLRLSCAASGFDFSDYEMSWVRQAPGKGLEWVSSITSEGGSTYYADSVKGRFTISRDNSKNTLYLQMNSLRAEDTAVYYCAKPDVLFDYWGQGTLVTVSS VL: DIQMTQSPSSLSASVGDRVTITCRASSSVSYMHWYQQKPGKAPKLLIYAASDLESGVPSRFSGSGSGTDFTLTISSLQPEDFATYYCSQSTHVPTFGQGTKVEIK | 0.4
CD40L-168 (antibody, V domains shown, IgG2) VH: EVQLLESGGGLVQPGGSLRLSCAASGFDFSDYEMSWVRQAPGKGLEWVSSITSEGGSTYYADSVKGRFTISRDNSKNTLYLQMNSLRAEDTAVYYCAKPDVLFDYWGQGTLVTVSS VL: DIQMTQSPSSLSASVGDRVTITCSGDNLGDKYVHWYQQKPGKAPKLLIYGKNIRPSGVPSRFSGSGSGTDFTLTISSLQPEDFATYYCQSGSSSANAVFGQGTKVEIK | 0.2
CD40L-161 (antibody, V domains shown, IgG2) VH: EVQLLESGGGLVQPGGSLRLSCAASGFDFSDYEMSWVRQAPGKGLEWVSSITSEGGSTYYADSVKGRFTISRDNSKNTLYLQMNSLRAEDTAVYYCAKPDVLFDYWGQGTLVTVSS VL: DIQMTQSPSSLSASVGDRVTITCRASQDVSSGVAWYQQKPGKAPKLLIYATSTLQSGVPSRFSGSGSGTDFTLTISSLQPEDFATYYCQQSFSVPAFGQGTKVEIK | 0.9
CD40L-160 (antibody, V domains shown, IgG2) VH: EVQLLESGGGLVQPGGSLRLSCAASGFDFSDYEMSWVRQAPGKGLEWVSSITSEGGSTYYADSVKGRFTISRDNSKNTLYLQMNSLRAEDTAVYYCAKPDVLFDYWGQGTLVTVSS VL: DIQMTQSPSSLSASVGDRVTITCRASQDVSSGVAWYQQKPGKAPKLLIYGKKNRPSGVPSRFSGSGSGTDFTLTISSLQPEDFATYYCQAWDRDTGVFGQGTKVEIK | 0.3
CD40L-166 (antibody, V domains shown, IgG2) VH: EVQLLESGGGLVQPGGSLRLSCAASGFDFSDYEMSWVRQAPGKGLEWVSSITSEGGSTYYADSVKGRFTISRDNSKNTLYLQMNSLRAEDTAVYYCAKPDVLFDYWGQGTLVTVSS VL: DIQMTQSPSSLSASVGDRVTITCRASQSIISYVNWYQQKPGKAPKLLIYGASNLHSGVPSRFSGSGSGTDFTLTISSLQPEDFATYYCQQSYSTPTFGQGTKVEIK | 1.1
CD40L-156 (antibody, V domains shown, IgG2) VH: EVQLLESGGGLVQPGGSLRLSCAASGFMFSWYDMGWVRQAPGKGLEWVSSIDWHGWVTYYADSVKGRFTISRDNSKNTLYLQMNSLRAEDTAVYYCAKAYYGGFDYWGQGTLVTVSS VL: DIQMTQSPSSLSASVGDRVTITCRASQPIGPDLLWYQQKPGKAPKLLIYDNTNRPSGVPSRFSGSGSGTDFTLTISSLQPEDFATYYCQQSQAAPLTFGQGTKVEIK | 1.3
CD40L-158 (antibody, V domains shown, IgG2) VH: EVQLLESGGGLVQPGGSLRLSCAASGGYNFRDYMHWVRQAPGKGLEWVSSIGRHGGRTYYADSVKGRFTISRDNSKNTLYLQMNSLRAEDTAVYYCAKDLGQGFDYWGQGTLVTVSS VL: DIQMTQSPSSLSASVGDRVTITCRASQDVSSGVAWYQQKPGKAPKLLIYQMSHLASGVPSRFSGSGSGTDFTLTISSLQPEDFATYYCSSQDTVTRVLGQGTKVEIK | 1.5
CD40L-167 (antibody, V domains shown, IgG2) VH: EVQLLESGGGLVQPGGSLRLSCAASGGYNFRDYMHWVRQAPGKGLEWVSSISNSGGSTYYADSVKGRFTISRDNSKNTLYLQMNSLRAEDTAVYYCAKNLGQGFDYWGQGTLVTVSS VL: DIQMTQSPSSLSASVGDRVTITCRASESVEYHGTSLMHWYQQKPGKAPKLLIYGTSNLESGVPSRFSGSGSGTDFTLTISSLQPEDFATYYCQQVVWRPFTFGQGTKVEIK | 1.4
CD40L-162 (antibody, V domains shown, IgG2) VH: EVQLLESGGGLVQPGGSLRLSCAASGGYNFRDYMHWVRQAPGKGLEWVAEIRNKANNHATKYADSVKGRFTISRDNSKNTLYLQMNSLRAEDTAVYYCAKNLGQGFDYWGQGTLVTVSS VL: DIQMTQSPSSLSASVGDRVTITCRTSQDISNYLNWYQQKPGKAPKLLIYATSNLASGVPSRFSGSGSGTDFTLTISSLQPEDFATYYCQQSYSSAPMFGQGTKVEIK | 0.3

Second part, the binder after the results:

100 nM FACS (MFI Ratio) [ratio] | Binder
0.5 | CD40L-172 (antibody, V domains shown, IgG2) VH: EVQLLESGGGLVQPGGSLRLSCAASGFDFSDYEMSWVRQAPGKGLEWVSSITSEGGSTYYADSVKGRFTISRDNSKNTLYLQMNSLRAEDTAVYYCAKPDVLFDYWGQGTLVTVSS VL: DIQMTQSPSSLSASVGDRVTITCKASQHVITHVTWYQQKPGKAPKLLIYGTSDLQSGVPSRFSGSGSGTDFTLTISSLQPEDFATYYCQQSNSWPYTFGQGTKVEIK
0.4 | CD40L-171 (antibody, V domains shown, IgG2) VH: EVQLLESGGGLVQPGGSLRLSCAASGFDFSDYEMSWVRQAPGKGLEWVSSITSEGGSTYYADSVKGRFTISRDNSKNTLYLQMNSLRAEDTAVYYCAKPDQFFDYWGQGTLVTVSS VL: DIQMTQSPSSLSASVGDRVTITCRASSSVSYMHWYQQKPGKAPKLLIYQNDKRPSGVPSRFSGSGSGTDFTLTISSLQPEDFATYYCQQHYSPSHTFGQGTKVEIK
8.9 | CD40L-177 (antibody, V domains shown, IgG2) VH: EVQLLESGGGLVQPGGSLRLSCAASGFTFASYEMTWVRQAPGKGLEWVSSITSEGGSTYYADSVKGRFTISRDNSKNTLYLQMNSLRAEDTAVYYCAKPDVLFDYWGQGTLVTVSS VL: DIQMTQSPSSLSASVGDRVTITCRASQDVSSGVAWYQQKPGKAPKLLIYDASNLQSGVPSRFSGSGSGTDFTLTISSLQPEDFATYYCSQSTRVPPTFGQGTKVEIK
0.4 | CD40L-174 (antibody, V domains shown, IgG2) VH: EVQLLESGGGLVQPGGSLRLSCAASGFDFSDYEMSWVRQAPGKGLEWVSSITSEGGSTYYADSVKGRFTISRDNSKNTLYLQMNSLRAEDTAVYYCAKPGRLFDYWGQGTLVTVSS VL: DIQMTQSPSSLSASVGDRVTITCRASESVEYHGTSLMHWYQQKPGKAPKLLIYGRNKRPSGVPSRFSGSGSGTDFTLTISSLQPEDFATYYCQAWDRDTGVFGQGTKVEIK
4.3 | CD40L-180 (antibody, V domains shown, IgG2) VH: EVQLLESGGGLVQPGGSLRLSCAASGFDFSDYEMSWVRQAPGKGLEWVSSITSEGGSTYYADSVKGRFTISRDNSKNTLYLQMNSLRAEDTAVYYCAKPDVLFDYWGQGTLVTVSS VL: DIQMTQSPSSLSASVGDRVTITCRASQSILSYLNWYQQKPGKAPKLLIYGASSLESGVPSRFSGSGSGTDFTLTISSLQPEDFATYYCQQTYDTPLTFGQGTKVEIK
0.4 | CD40L-175 (antibody, V domains shown, IgG2) VH: EVQLLESGGGLVQPGGSLRLSCAASGFDFSDYEMSWVRQAPGKGLEWVSSITSEGGSTYYADSVKGRFTISRDNSKNTLYLQMNSLRAEDTAVYYCAKPDKDFDYWGQGTLVTVSS VL: DIQMTQSPSSLSASVGDRVTITCRASQTIGDYLNWYQQKPGKAPKLLIYDASNLQSGVPSRFSGSGSGTDFTLTISSLQPEDFATYYCQQSYELPLTFGQGTKVEIK
9.7 | CD40L-191 (antibody, V domains shown, IgG2) VH: EVQLLESGGGLVQPGGSLRLSCAASGFDFSDYEMSWVRQAPGKGLEWVSSITSEGGSTYYADSVKGRFTISRDNSKNTLYLQMNSLRAEDTAVYYCAKPDVLFDYWGQGTLVTVSS VL: DIQMTQSPSSLSASVGDRVTITCSGNKLGDKYASWYQQKPGKAPKLLIYDTSKVASGVPSRFSGSGSGTDFTLTISSLQPEDFATYYCQQSYETPLTFGQGTKVEIK
0.4 | CD40L-173 (antibody, V domains shown, IgG2) VH: EVQLLESGGGLVQPGGSLRLSCAASGGYNFRDYMHWVRQAPGKGLEWVATISGGGINTYYPDSVKGRFTISRDNSKNTLYLQMNSLRAEDTAVYYCAKDLGQGFDYWGQGTLVTVSS VL: DIQMTQSPSSLSASVGDRVTITCQSSQSVYSNNELSWYQQKPGKAPKLLIYGRNKRPSGVPSRFSGSGSGTDFTLTISSLQPEDFATYYCSQGTHVPPTFGQGTKVEIK
0.6 | CD40L-170 (antibody, V domains shown, IgG2) VH: EVQLLESGGGLVQPGGSLRLSCAASGGYNFKDYMHWVRQAPGKGLEWVSSIGRHGGRTYYADSVKGRFTISRDNSKNTLYLQMNSLRAEDTAVYYCAKDLGQGFDYWGQGTLVTVSS VL: DIQMTQSPSSLSASVGDRVTITCRASQDVSSGVAWYQQKPGKAPKLLIYQMSHLASGVPSRFSGSGSGTDFTLTISSLQPEDFATYYCSSQDTVTRVLGQGTKVEIK
